Assay results from the supplement of paper PMC11780869.

System: Bacillus subtilis
Experiment: cleaved RNA product abundance (RNA/gDNA barcode ratio) relative to median wild-type variant (ratio to wild type); higher = more accumulation of the downstream cleavage product
Details: cleavage site: cggR-gapA (positions -7 to +36 mutated)
Method in brief: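 Cleaved product abundance was measured with barcoded reporter mRNAs (truncated aprE or tetM) carrying mutagenized RNase Y cleavage-site windows in the B. subtilis chromosome. Cultures in LB at 37°C grew from OD600 0.0003 to 0.3. Gel-selected cleaved RNA was reverse transcribed and barcode-sequenced with genomic DNA barcodes, and the RNA:gDNA barcode ratio per construct was scaled to the median construct bearing the unmutated site.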

[1] = experiment (reporter, strain, medium): exp 2b: truncated aprE reporter, strain BJT200
[2] = experiment (reporter, strain, medium): exp 4a: truncated aprE reporter, strain BJT201 with 2% xylose (RNase J1 expressed)

Sequence | cleaved RNA product abundance [1] | cleaved RNA product abundance [2] | cleaved RNA product abundance (experiment (reporter, strain, medium): exp 6: tetM reporter, strain 168)
ACAGACGAAGGAGCCGCAAAGATGTTATTAAGGGTTGAATAATCCCTCAATATAAATATCTCTCACTTATTTAAA | 0.251 |  | 
ACAGACGAAGGAGCCGCAAAGATGTTATTAAGGTATGAATAATCCCTCAATATAAATATCTCTCACTTATTTAAA |  | 0.161 | 
ACAGACGAAGGAGCCGCAAAGATGTTATTAAGTGATGAATAATCCCTCAATATAAATATCTCTCACTTATTTAAA | 0.1 | 0.11 | 
ACAGACGAAGGAGCCGCAAAGATGTTATTAATGGATGAATAATCCCTCAATATAAATATCTCTCACTTATTTAAA | 0.131 | 0.135 | 
ACAGACGAAGGAGCCGCAAAGATGTTATTACGGGATGAATAATCCCTCAATATAAATATCTCTCACTTATTTAAA | 0.369 | 0.401 | 
ACAGACGAAGGAGCCGCAAAGATGTTATTATGGGATGAATAATCCCTCAATATAAATATCTCTCACTTATTTAAA |  | 0.343 | 
ACAGACGAAGGAGCCGCAAAGATTTTATTAAGGGATGAATAATCCCTCAATATAAATATCTCTCACTTATTTAAA | 1.07 | 0.974 | 
ACAGACGAAGGAGCCGCAAAGCAATTATTAAGGGATGAATAATCCCTCAATATAAATATCTCTCACTTATTTAAA |  | 0.718 | 
ACAGACGAAGGAGCCGCAAAGCAGTTAATAAGGGATGAATAATCCCTCAATATAAATATCTCTCACTTATTTAAA |  | 0.298 | 
ACAGACGAAGGAGCCGCAAAGCAGTTATTAAAGGATGAATAATCCCTCAATATAAATATCTCTCACTTATTTAAA | 0.136 |  | 
ACAGACGAAGGAGCCGCAAAGCAGTTATTAAGGAATGAATAATCCCTCAATATAAATATCTCTCACTTATTTAAA |  | 0.0974 | 
ACAGACGAAGGAGCCGCAAAGCAGTTATTAAGGGAAGAATAATCCCTCAATATAAATATCTCTCACTTATTTAAA |  | 0.561 | 
ACAGACGAAGGAGCCGCAAAGCAGTTATTAAGGGATAAATAATCCCTCAATATAAATATCTCTCACTTATTTAAA |  | 0.625 | 
ACAGACGAAGGAGCCGCAAAGCAGTTATTAAGGGATGAAAAATCCCTCAATATAAATATCTCTCACTTATTTAAA |  | 0.687 | 
ACAGACGAAGGAGCCGCAAAGCAGTTATTAAGGGATGAATAACCCCTCAATATAAATATCTCTCACTTATTTAAA |  | 0.275 | 
ACAGACGAAGGAGCCGCAAAGCAGTTATTAAGGGATGAATAATCCATCAATATAAATATCTCTCACTTATTTAAA |  | 0.172 | 

Sequence | cleaved RNA product abundance [1] | cleaved RNA product abundance [2] | cleaved RNA product abundance (experiment (reporter, strain, medium): exp 6: tetM reporter, strain 168)
ACAGACGAAGGAGCCGCAAAGCAGTTATTAAGGGATGAATAATCCCTAAATATAAATATCTCTCACTTATTTAAA |  | 0.591 | 
ACAGACGAAGGAGCCGCAAAGCAGTTATTAAGGGATGAATAATCCCTCAAAATAAATATCTCTCACTTATTTAAA |  | 0.468 | 
ACAGACGAAGGAGCCGCAAAGCAGTTATTAAGGGATGAATAATCCCTCAACATAAATATCTCTCACTTATTTAAA |  | 0.118 | 
ACAGACGAAGGAGCCGCAAAGCAGTTATTAAGGGATGAATAATCCCTCAATATAAATATCTCTCACTTATTTAAA | 0.905 | 0.958 | 0.944
ACAGACGAAGGAGCCGCAAAGCAGTTATTAAGGGATGAATAATCCCTCAATATATATATCTCTCACTTATTTAAA |  | 0.687 | 
ACAGACGAAGGAGCCGCAAAGCAGTTATTAAGGGATGAATAATCCTTCAATATAAATATCTCTCACTTATTTAAA |  | 0.526 | 
ACAGACGAAGGAGCCGCAAAGCAGTTATTAAGGGATGAATAATCGCTCAATATAAATATCTCTCACTTATTTAAA | 0.083 |  | 
ACAGACGAAGGAGCCGCAAAGCAGTTATTAAGGGATGAATATTCCCTCAATATAAATATCTCTCACTTATTTAAA | 0.832 | 0.898 | 
ACAGACGAAGGAGCCGCAAAGCAGTTATTAAGGGATGAGTAATCCCTCAATATAAATATCTCTCACTTATTTAAA |  | 0.658 | 
ACAGACGAAGGAGCCGCAAAGCAGTTATTAAGGGATGCATAATCCCTCAATATAAATATCTCTCACTTATTTAAA | 0.0725 |  | 
ACAGACGAAGGAGCCGCAAAGCAGTTATTAAGGTATGAATAATCCCTCAATATAAATATCTCTCACTTATTTAAA |  | 0.0937 | 
ACAGACGAAGGAGCCGCAAAGCAGTTATTAAGTGATGAATAATCCCTCAATATAAATATCTCTCACTTATTTAAA |  | 0.0809 | 
ACAGACGAAGGAGCCGCAAAGCAGTTATTAATGGATGAATAATCCCTCAATATAAATATCTCTCACTTATTTAAA |  | 0.171 | 
ACAGACGAAGGAGCCGCAAAGCATTTATTAAGGGATGAATAATCCCTCAATATAAATATCTCTCACTTATTTAAA |  | 0.256 | 
ACAGACGAAGGAGCCGCAAAGGAATTATTAAGGGATGAATAATCCCTCAATATAAATATCTCTCACTTATTTAAA |  | 0.671 | 
ACAGACGAAGGAGCCGCAAAGGACTTATTAAGGGATGAATAATCCCTCAATATAAATATCTCTCACTTATTTAAA |  | 0.173 | 
